Data from the supplement of paper PMC10724198.
± gives the standard deviation of the averaged measurements.

Key:
Saccharomyces cerevisiae [1] = assay: protein stability index of tFT-peptide fusion (C-terminal peptide) (PSI (0-1 scale)); higher = more stable (slower turnover)
Procedure: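 MPS profiling in S. cerevisiae of the tFT-X12 degron library: putative degron peptides plus stable controls, 12 aa, fused to the C-terminus of a sfGFP-mCherry timer. Cells are FACS-sorted into 8 mCherry/sfGFP bins and deep-sequenced. PSI runs from 0 (unstable) to 1 (stable). Backgrounds are wild type, das1Δ and doa10Δ at 30 °C, and wild type, das1Δ, cdc34-1 and cdc53-1 at 37 °C; 2-3 technical replicates each.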

Saccharomyces cerevisiae [2] = assay: as above; conditions: genetic background: wild type; temperature: 30 C
[3] = genetic background: cdc34-1, temperature: 37 C
[4] = genetic background: cdc53-1, temperature: 37 C
[5] = genetic background: das1 deletion, temperature: 30 C
[6] = genetic background: das1 deletion, temperature: 37 C
[7] = genetic background: doa10 deletion, temperature: 30 C
[8] = genetic background: wild type, temperature: 30 C
[9] = genetic background: wild type, temperature: 37 C
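Further: PSI is a weighted mean of sequencing reads over stability bins, variants kept only with over 10 reads, mCherry proximal and sfGFP distal, peptide attached via GGGS linker.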

Sequence	protein stability index (Saccharomyces cerevisiae [1]; [3])	protein stability index (Saccharomyces cerevisiae [1]; [4])	protein stability index (Saccharomyces cerevisiae [1]; [5])	protein stability index (Saccharomyces cerevisiae [1]; [6])	protein stability index (Saccharomyces cerevisiae [1]; [7])	protein stability index (Saccharomyces cerevisiae [1]; [8])	protein stability index (Saccharomyces cerevisiae [1]; [9])	protein stability index (Saccharomyces cerevisiae [2])
LFDYEAGEVMGG	0.729 ± 0.042	0.747 ± 0.03	0.661 ± 0.023	0.783 ± 0.017	0.656 ± 0.025	0.689 ± 0.022	0.779 ± 0.023	0.717 ± 0.017
LFFFLVWSLSVF	0.0262 ± 0.0035	0.0512 ± 0.0066	0.0353 ± 0.011	0.0635 ± 0.02	0.0187 ± 0.0092	0.0205 ± 0.0042	0.0395 ± 0.013	0.0314 ± 0.029
LFFFVCYLATVK	0.198 ± 0.0088	0.347 ± 0.11	0.23 ± 0.032	0.416 ± 0.017	0.166 ± 0.011	0.191 ± 0.02	0.326 ± 0.0072	0.276 ± 0.053
LFGFYFVRCLVW	0.113 ± 0.0026	0.168 ± 0.022	0.178 ± 0.022	0.263 ± 0.012	0.16 ± 0.017	0.159 ± 0.0095	0.23 ± 0.0099	0.226 ± 0.0096
LFHFPSWIFCLL	0.562 ± 0.02	0.612 ± 0.029	0.55 ± 0.036	0.688 ± 0.015	0.24361 ± 0.00024	0.251 ± 0.014	0.308 ± 0.016	0.331 ± 0.0049
LFIRSFLFFSHF	0.353 ± 0.0079	0.3482 ± 0.00057	0.498 ± 0.019	0.581 ± 0.016	0.248 ± 0.026	0.184 ± 0.025	0.307 ± 0.082	0.27 ± 0.0052
LFLTSFRFLRLF	0.337 ± 0.016	0.4813 ± 0.0027	0.509 ± 0.0094	0.597 ± 0.03	0.0803 ± 0.006	0.0691 ± 0.015	0.134 ± 0.03	0.162 ± 0.0047
LFPLLCLLLPSL	0.614 ± 0.091	0.664 ± 0.033	0.548 ± 0.025	0.638 ± 0.0096	0.521 ± 0.027	0.522 ± 0.02	0.628 ± 0.0063	0.538 ± 0.065
LFTVCMIIQMVH	0.0516 ± 0.003	0.185 ± 0.0029	0.145 ± 0.036	0.273 ± 0.02	0.0793 ± 0.0011	0.1 ± 0.055	0.173 ± 0.016	0.177 ± 0.017
LFVGLVSFRIGA	0.563 ± 0.039	0.573 ± 0.014	0.428 ± 0.029	0.601 ± 0.0068	0.399 ± 0.018	0.419 ± 0.021	0.575 ± 0.0069	0.477 ± 0.029
LGCRFCFVGVVG	0.589 ± 0.011	0.632 ± 0.052	0.429 ± 0.021	0.634 ± 0.026	0.395 ± 0.01	0.439 ± 0.029	0.574 ± 0.022	0.494 ± 0.033
LGPLGWLVLLLV	0.415 ± 0.012	0.425 ± 0.014	0.353 ± 0.022	0.483 ± 0.0058	0.23 ± 0.015	0.22 ± 0.021	0.354 ± 0.0068	0.292 ± 0.035
LGWFVDFVFVVW	0.289 ± 0.0096	0.426 ± 0.037	0.27 ± 0.03	0.458 ± 0.012	0.244 ± 0.0045	0.274 ± 0.025	0.454 ± 0.0019	0.4693 ± 0.0045
LHASCVYTILLV	0.427 ± 0.035	0.4584 ± 0.0012	0.351 ± 0.03	0.499 ± 0.0092	0.323 ± 0.019	0.304 ± 0.019	0.451 ± 0.0082	0.389 ± 0.0049
LIARYTFLFCLC	0.553 ± 0.042	0.611 ± 0.015	0.531 ± 0.015	0.628 ± 0.021	0.3501 ± 0.0008	0.354 ± 0.024	0.488 ± 0.025	0.444 ± 0.031
LLCGVLFFFWVV	0.38 ± 0.018	0.496 ± 0.011	0.383 ± 0.03	0.525 ± 0.017	0.311 ± 0.0096	0.32 ± 0.021	0.451 ± 0.0076	0.42 ± 0.068
LLFSVLLLGVGF	0.425 ± 0.033	0.4723 ± 0.001	0.334 ± 0.023	0.5038 ± 0.0037	0.329 ± 0.024	0.324 ± 0.036	0.475 ± 0.0074	0.407 ± 0.035
LLGSRFVLIRSL	0.488 ± 0.028	0.571 ± 0.044	0.462 ± 0.026	0.621 ± 0.012	0.114 ± 0.014	0.121 ± 0.01	0.161 ± 0.009	0.185 ± 0.017
LLLRSSRLRVLS	0.543 ± 0.064	0.619 ± 0.03	0.607 ± 0.013	0.6521 ± 0.005	0.0852 ± 0.0037	0.0918 ± 0.02	0.149 ± 0.021	0.176 ± 0.065
LLLRWWLYSCCP	0.411 ± 0.027	0.495 ± 0.012	0.324 ± 0.032	0.4667 ± 0.0026	0.319 ± 0.016	0.328 ± 0.017	0.478 ± 0.012	0.42 ± 0.034
LLPFSLLDLLLC	0.658 ± 0.028	0.707 ± 0.021	0.58 ± 0.028	0.681 ± 0.016	0.361 ± 0.029	0.404 ± 0.017	0.607 ± 0.0088	0.488 ± 0.066
LLQCRTGLASGR	0.685 ± 0.032	0.732 ± 0.043	0.649 ± 0.013	0.748 ± 0.0087	0.652 ± 0.029	0.656 ± 0.043	0.718 ± 0.043	0.518 ± 0.13
LLSGLVFVFVLG	0.293 ± 0.01	0.405 ± 0.026	0.238 ± 0.04	0.445 ± 0.0072	0.204 ± 0.0027	0.236 ± 0.028	0.425 ± 0.014	0.318 ± 0.02
LLSILSSLPLSR	0.579 ± 0.04	0.6106 ± 0.0022	0.585 ± 0.043	0.7073 ± 0.0042	0.654 ± 0.033	0.589 ± 0.024	0.656 ± 0.029	0.576 ± 0.12
LLVFSLLRPFLF	0.615 ± 0.072	0.643 ± 0.018	0.567 ± 0.039	0.6602 ± 0.0048	0.414 ± 0.028	0.417 ± 0.023	0.5623 ± 0.003	0.501 ± 0.016
LLVLRQYFFFFV	0.462 ± 0.026	0.531 ± 0.013	0.468 ± 0.035	0.606 ± 0.017	0.238 ± 0.012	0.224 ± 0.022	0.401 ± 0.011	0.295 ± 0.027
LPCPPSPASLPR	0.676 ± 0.0092	0.7154 ± 0.0027	0.447 ± 0.013	0.634 ± 0.0069	0.437 ± 0.013	0.448 ± 0.0041	0.59 ± 0.019	0.498 ± 0.0076
LPHIFFCLFSLL	0.582 ± 0.045	0.611 ± 0.047	0.562 ± 0.05	0.657 ± 0.066	0.203 ± 0.01	0.215 ± 0.024	0.317 ± 0.015	0.289 ± 0.026
LPPFRFSLPFRR	0.692 ± 0.044	0.7531 ± 0.0018	0.671 ± 0.013	0.705 ± 0.023	0.64 ± 0.024	0.658 ± 0.019	0.71 ± 0.036	0.712 ± 0.019
LPWLLLISFSYR	0.149 ± 0.017	0.25 ± 0.037	0.202 ± 0.029	0.38 ± 0.0051	0.171 ± 0.0091	0.188 ± 0.029	0.378 ± 0.061	0.286
